Measured values as given in the nanobody polyreactivity screen of Harvey et al. (2022).

Assay: yeast display, Sf9 membrane polyspecificity reagent, FACS + sequencing; frameworks hold sequencing errors
How it was run: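 Using colony PCR, genes from sorted yeast display clones were amplified, then sequenced on MiSeq at 2 × 250 and filtered by CDR length. The clones had been stained with 10% biotinylated, detergent-solubilized Sf9 membrane reagent for 1 hour at 4 °C and sorted by FACS into low and high (top ~1%) gates on anti-HA and streptavidin fluorescence. Polyreactivity labels come from the gate of origin.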

Row | Sequence | polyreactivity (PSR sort gate)
1 | QVQLVESGGGLVQAGGSLRLSCAASGRTFYIYAMGWYRQAPGKERELVAAITWSGGSSTYYADSVKGRFTISRDNAKNTVYLQMNSLKPEDTAVYYCAAETHYYWYEQYDYWGQGTQVTVSS | high polyreactivity
2 | QVQLVESGGGLVQAGGSLRLSCAASGRTFYIYTMGWYRQAPGKERELVAAISGRGGRTYYADSVKGSFTISRDNAKNTVYLQMNSLKPEDTAVYYCARGGRVRYDYWGQGTQVTVSS | low polyreactivity
3 | QVQLVESGGGLVQAGGSLRLSCAASGRTFYKNAMGWYRQAPGKERELVAAISQRGGGTYYADSVKGRFTISRDNAKNTVYLQMNSLKPEDTAVYYCNAPLVFIHGSDYWGQGTQVTVSS | high polyreactivity
4 | QVQLVESGGGLVQAGGSLRLSCAASGRTFYKNAMGWYRQAPGKERELVAAISYGGGSTYYADSVKGRFTISRDNAKNTVYLQMISLKPEDTAVYYCATQLPFRKPWHDYWGQGTQVTVSS | high polyreactivity
5 | QVQLVESGGGLVQAGGSLRLSCAASGRTFYKNAMGWYRQAPGKERELVARISRGGSTNYADSVKGRFTISRDNAKNTVYLQMYSVKPEESAVYYCATEYGTHGKTYDYWGQGSQVTVSS | high polyreactivity
6 | QVQLVESGGGLVQAGGSLRLSCAASGRTFYKNTMGWYRQAPGKERELVATISQRGGSTYYADSVKGRFTISRDNAKNTVYLQMNSLKPEDTAVYYCNARRTSYTSQGYDYWGQGTQVTVSS | high polyreactivity
7 | QVQLVESGGGLVQAGGSLRLSCAASGRTFYKYAMGWYRQAPGKERELVAAISSRGGRTYYADSVKGRFTISRDNATNTVYLQMNSLKPEDTAVYYCAAKGRPDGKYDYWGQGTQVTVSS | high polyreactivity
8 | QVQLVESGGGLVQAGGSLRLSCAASGRTFYKYGMGWYRQAPGKERELVARINSNGGSTYYADSVKGRFTISRDNAKNTVYLQMNSLKPADTAVYYCARSYVRSYGYYYWGQGPQVTVSS | low polyreactivity
9 | QVQLVESGGGLVQAGGSLRLSCAASGRTFYKYGMGWYRQAPGKERELVASISSGGNTYYADSVKGRFTISRDNAKNTVYLQMNSLKPEDTAVYYCNAGYWAKFDYWGQGTQVTVSS | high polyreactivity
10 | QVQLVESGGGLVQAGGSLRLSCAASGRTFYKYGMVLYRKAPGKERELVAAIRWSGGSTYYADSVKGRFTISRDNAKYTVYFQMNSLKPEDTAVYYCATRSGFGYGYWGQGTQVNVSS | high polyreactivity
11 | QVQLVESGGGLVQAGGSLRLSCAASGRTFYLYAMGWYRPAPGKERELVAAITSGGSTNYADSVKGRFTISRDNAKNTVYLQMNSLKPEDTAVYYCNAYKRGYLYRYNYWGQGTQVTVSS | high polyreactivity
12 | QVQLVESGGGLVQAGGSLRLSCAASGRTFYLYAMGWYRPAPGKERELVAAITWSGGSTYYADSVKGRFTISRYNAKNTVFLQMNSLKPEDTAVYYCAAGLYLFQIWFGNEYDYWGQGTQVTVSS | high polyreactivity
13 | QVQLVESGGGLVQAGGSLRLSCAASGRTFYLYAMGWYRQAPGKERELVAAITRRGGSTYYADSVKGRFTISRDNAKNTVYLQMNSLKPEDTAVYYCAADRPGTGYSDYDYWGQGTQVTVSS | high polyreactivity
14 | QVQLVESGGGLVQAGGSLRLSCAASGRTFYLYAMGWYRQAPGKVRELVAAITRRGGSPYYADSVKGRFTISRDNAKNTVYLQMNSLKPEDTAVSYCAADRPGTGYSDYDYWGQGTQVTVSS | high polyreactivity
15 | QVQLVESGGGLVQAGGSLRLSCAASGRTFYLYARGWYRQAPGKERELVAAITRSGGSTYYADSVKGRFTISRDNAKNTVYLQMNSLKPEDTAVYYCAAYSYYGAGDRAYDYWGQGTQVTVSS | high polyreactivity
16 | QVQLVESGGGLVQAGGSLRLSCAASGRTFYLYTMGWYRQAPGKERELVAAITRGGNTYYADSVKGRFTISRDNAKNTVYLQMNSLKPEDTAVYYCAAADYTTPVPYGRKGFDYWGQGTQVTVSS | low polyreactivity
17 | QVQLVESGGGLVQAGGSLRLSCAASGRTFYNNAMGWYRPAPGKERELVAAISQRTGRTYYADSVKGRFTISRDNAKNTVYLQMNSLKPEDTAVYYCNKVAYYSRRMDYWGQGTQVTVSS | high polyreactivity
18 | QVQLVESGGGLVQAGGSLRLSCAASGRTFYNYAMGWYRQAPGKERELVAAIRGSGGSTYYADSVKGRFTISRDNAKNTVYLQMNSLKPEETAVYYCNAVSQSSEYDYWGHGTQVTVSS | high polyreactivity
19 | QVQLVESGGGLVQAGGSLRLSCAASGRTFYPNTMGWYRQAPGKERELVAAIRSSGGSTYYADSVKGRFTISRDNAKKTVYLQMNSLKPEDTAVYYCAAKGRSSYFYWFDYWGQGTQVTVSS | high polyreactivity
20 | QVQLVESGGGLVQAGGSLRLSCAASGRTFYPYAMGWYRQAPGKEREFVAVINRSVGSPYYADSVNGRFTISRDNAKNTVYLQMNSLKPEDTAVYYCAAREPLSYYVGGDYWGQGTQVTVSS | low polyreactivity
21 | QVQLVESGGGLVQAGGSLRLSCAASGRTFYPYAMGWYRQAPGKERELVAAINWRDGSTYYADSVKGRFTISRDNAKNTVYLQMNSLKPEDTAVYYCAADYYWWQYDYWGQGTQVTVSS | high polyreactivity
22 | QVQLVESGGGLVQAGGSLRLSCAASGRTFYQYAMGWYRQARGKERELVAAISRRGGSTYYADSVKGRFTISRDNAKNTVYLQMNSLKPEDTAVYYCAARVRGKYDYWGQGTQVTVSS | high polyreactivity

Row | Sequence | polyreactivity (PSR sort gate)
23 | QVQLVESGGGLVQAGGSLRLSCAASGRTFYRNAMGWSRQAPGKEREFVAVISVSGGSTYYADSVKGRFTISRDNAKNTVYLQMNSLKPEDTAVYYCAKRGPVRKTAYDYWGQGTQVTVSS | low polyreactivity
24 | QVQLVESGGGLVQAGGSLRLSCAASGRTFYRNAMGWYRQAPGKERELVAAITRGGRTYYADSVKGRFTISRDNAKNTVYLQMNSLKPEDTAVYYCNAVSYSSTLASKIPDDYWGQGTQVTVSS | high polyreactivity
25 | QVQLVESGGGLVQAGGSLRLSCAASGRTFYRNAMGWYRQAPGKERELVAAITWSGVSTYYADSVKGRFTISRDNAKNTVYLQMNSLKPEDTAVYYCARGRVLRNGHYFQLRNYDYWGQGTQVTVSS | high polyreactivity
26 | QVQLVESGGGLVQAGGSLRLSCAASGRTFYRNAMGWYRQAPGKERELVAGITRGGRTYYADSVKGRFTISRDNAKNTVYLQMNSLKPEDTAVYYCAKGRSWQIYYKGGIKGGYWGQGTQVTVSS | low polyreactivity
27 | QVQLVESGGGLVQAGGSLRLSCAASGRTFYRNDMGWYRQEPGKEREFVAAITSSGGTTYADSVKGRFTISRDNAKNTVYLQMNSLKPEDTAVYYCNTVLYPYWQWDYEFDYWGQGTQVTVSS | low polyreactivity
28 | QVQLVESGGGLVQAGGSLRLSCAASGRTFYRNDRGWYRQAPGKERELVAAITSSGGTTYADSVKGRFTISRDNAKNTVYLQMNSLKPEDTAVYYCNTVLYAYWQWDYEFDYWGQGTQVTVSS | low polyreactivity
29 | QVQLVESGGGLVQAGGSLRLSCAASGRTFYRSVMGWYRQAPGKERELVAAITPGGSTYADSVKGRFTISRDNAKKTVSLQMNSLKPEDTAVNYCNKRKASSSGYNYWGQVTQVTVSS | low polyreactivity
30 | QVQLVESGGGLVQAGGSLRLSCAASGRTFYRYAMGWSRQAPGKERELVATISGSGGSTYYADSVKGRFTISRDNAKNTVYLQMNSLKPEDTAVYYCNAVWRFPIGRTAPRYDYWGQGTQVTVSS | high polyreactivity
31 | QVQLVESGGGLVQAGGSLRLSCAASGRTFYRYAMGWYRQAPGKEREFVAAISNGGSNTRYADSVKGRFTISRDNATNTVYLQMNSLKPEDTAVYYCAASAYQHYNWGQGTQVTVSS | high polyreactivity
32 | QVQLVESGGGLVQAGGSLRLSCAASGRTFYRYAMGWYRQAPGKERELVAAISSNGGSTYYADSVKGRFTISRDNAKNTVYLQMNSLKPEDTAVYYCYYYYSRLFDYWGQGTQVTVSS | high polyreactivity
33 | QVQLVESGGGLVQAGGSLRLSCAASGRTFYRYAMGWYRQAPGKERELVAAITGGGGSTYYADSVKGRFTISRDNAKNTVYLQMNSLKPEDTAVYYCNRRSYGFISYNFWGQGTQVTVSS | high polyreactivity
34 | QVQLVESGGGLVQAGGSLRLSCAASGRTFYRYAMGWYRQAPGKERELVASINRGGSTNYADSVKGRFTISRDNAKNTVFLQMNCLKPEDTAVYYCACYCYCYWGQGTQVTVSS | low polyreactivity
35 | QVQLVESGGGLVQAGGSLRLSCAASGRTFYRYAMGWYRQAPGKERELVATISRSGGSTYYADSVKGRFTISRDNAKYTVYLQMKSLNPEDTAVYYCNAEGYPWGFYTYDYWGQGTQVTVSS | low polyreactivity
36 | QVQLVESGGGLVQAGGSLRLSCAASGRTFYRYAMGWYRQAPGKERELVAVITSGSRTKYADSVKGRFTISRDNAKNTVYLQMNSLKPEDTAVYYCAARGLALEGKSSGEYWGQGTQVTVSS | high polyreactivity
37 | QVQLVESGGGLVQAGGSLRLSCAASGRTFYRYAMGWYRQAPGKERELVAVITSGSRTKYADSVKGRFTISRDNAKNTVYLQMNSLKPEDTAVYYCAARVLALEGKSSGEYWGQGTQVTVSS | high polyreactivity
38 | QVQLVESGGGLVQAGGSLRLSCAASGRTFYRYSMGWYRQAPGKERELVAGISTRGGSTYYADSVKGRFTISRDNAKNTVYLQMNSLKPEDTAVYYCAAAPLAFRYDYWGQGTHVTVSS | high polyreactivity
39 | QVQLVESGGGLVQAGGSLRLSCAASGRTFYRYVMGWYRQAPGKERELVAAISKSDGSTYYADSVKGRFTISRDNAKNSVYLQMNSLKPEDTAVYYCNARLSWSAFGYWGQGTQVTVSS | high polyreactivity
40 | QVQLVESGGGLVQAGGSLRLSCAASGRTFYSNAMGWYRPAPGKERELVAAITFGGGSTYYADSVKGRFTISRDNAKNTVYVQMNSLKPEDTAVYYCAAEGYKYRFYYWGQGTQVTVSS | low polyreactivity
41 | QVQLVESGGGLVQAGGSLRLSCAASGRTFYSNAMGWYRQAPGKETELVAAISNRGGSTYYADSLKGRFTISRDNAKNTVYLQMNSLKPEYTAVYYCARYPTKYGYWGQGTQVTVSS | high polyreactivity
42 | QVQLVESGGGLVQAGGSLRLSCAASGRTFYSNARGWSRQAPGKERELVARISNGGSTHYADSVKGRFTISRDNAKNTVYLQMNSLKPEDTAVYYCNTDRGHFYTYPYTYYRLGYWGQGTQVTVSS | low polyreactivity
43 | QVQLVESGGGLVQAGGSLRLSCAASGRTFYSYAMGWYRQAPGKERELVAAISKRGTSTYYADSVKGRFTISRDNAKNTVYLQMNSLKPEDTAVYYCAAAYRGREVEYNCWGQGTQVTVSS | high polyreactivity
